± gives the half width of the 95% confidence interval.
Columns and labels:
[1] = folding stability dG unfold from trypsin proteolysis; higher = more stable
Procedure, shortened: (§1)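 Designed mini-proteins (under 80 residues, no cysteine) in a PA-tagged cDNA display construct were digested with trypsin and chymotrypsin. Each protease was used at 11 concentrations (threefold dilutions) plus a no-protease condition, followed by sequencing. K50 was inferred by Bayesian fitting of sequencing counts, and unfolding free energy was derived against a sequence-predicted unfolded-state K50 and a shared folded-state K50, per protease or combined. Only designs with AlphaFold2 dimer inter-PAE above 15 were kept.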

[2] = folding stability dG unfold from chymotrypsin proteolysis; higher = more stable
Procedure, shortened: as §1

[3] = folding stability dG unfold (combined trypsin and chymotrypsin); higher = more stable
Procedure, shortened: as §1

Sequence | folding stability dG unfold [1] [kcal/mol] | folding stability dG unfold [2] [kcal/mol] | folding stability dG unfold [3] [kcal/mol]
SAGGSAGGSAGGSLPFLKAKFTFTVRATVTVTVTDDDGKTTTEEFELETTVTVTLEPKPSAGGSAGGSAGGS [r4_162_TrROS_Hall] | 2.88 ± 0.15 | 3.45 ± 0.07 | 3.1 ± 0.2
SASSETFEIEVKVKLFFRDPEKGKLVEREFDAIVKVTVNPETGEVKVEVYFKPLGKPVTITLPPGASIESAG [r14_587_TrMRF] | 3.13 ± 0.2 | 4.54 ± 0.16 | 4.26 ± 0.21
SAGGSAEIVIVESPQQVREAAEPENPDGPPVKVIPMTYEEAKNEIRELKKKGKPMKIVIVIDPGTPSAGGSA [r15_567_TrROS] | -0.547 ± 0.41 | -0.167 ± 0.24 | -0.429 ± 0.65
SAGGSAPFKIAEIESVEYDPNEGRPTIRITIEHDGRPVEIWVPPGGIQIFNMGDGEPIKEIPLDEISAGGSA [r15_85_TrROS] | 0.182 ± 0.25 | 0.434 ± 0.48 | 0.0268 ± 0.26
SAMKKITLDVYRPPDKLLVTVSFPETGKTVTLPFTSEEALREEIVKKLGLSPEELEIVDRKEKELSPELLSA [r9_909_JUSTAS] | 0.194 ± 0.054 | 0.623 ± 0.074 | 0.46 ± 0.13
SAGGSAGGSAGGNKVTIPIHIPPGDPGNPEKAIEWAEHIAKELQEKNGGKDVDINIMPSPSAGGSAGGSAGG [r7_440_TrROS] | 0.772 ± 0.1 | -0.595 ± 0.079 | 0.174 ± 0.33
SAGGSAGGSAGGGRTYTFTLPDGTVLTVTADDMTEEEIRAKLEAEGGEIVEITVEPGLSSAGGSAGGSAGGS [r10_572_JUSTAS] | 2.43 ± 0.034 | 2.991 ± 0.018 | 2.86 ± 0.07
SAGGSAGGSAGGITLEEILKLIKDQPPGETRMIRLPGNGYTIQIYYEDNQLEIDIEPVKDSAGGSAGGSAGG [r7_448_TrROS] | 1.06 ± 0.029 | 1.57 ± 0.032 | 1.41 ± 0.078
SAGGSAGGSTTLTVDLPFGPATVHITGLPDSFVAFIEFDNPPFRATATIKEISKNGIVIEDIDFSAGGSAGG [r6_982_TrMRF] | 2.2 ± 0.086 | 1.9 ± 0.13 | 2.1 ± 0.22
SAGGSAGGSAGGMVLVETEPLPDGGYRVLVVFPGTDEVRELYFSSSTTPEQVLDVVLAESAGGSAGGSAGGS [r10_825_TrMRF] | 2.44 ± 0.059 | 2.233 ± 0.021 | 2.34 ± 0.083
SAGGSAGGGLIEIIPNTLKAKIINPKTGKVEEIEFSNIDELIEEIKKKYPNVDFKILPNGIILGSAGGSAGG [r6_286_TrMRF] | 3.14 ± 0.16 | 2.82 ± 0.07 | 3.05 ± 0.19
SAGGSAGGSAGMKTVLSTKTEPSPEDLTVTTVTLGDKVYTIIYDPKTGKPLKVIPAGEFKSAGGSAGGSAGG [r11_851_JUSTAS] | -0.0393 ± 0.1 | 1.25 ± 0.093 | 0.857 ± 0.12
SAGGSAGGSAGMVEVYSEPDGTVIVKETVPGKVVITVLEKVPGGPGLNPVTTTVVPPGLLSAGGSAGGSAGG [r11_844_JUSTAS] | 1.4 ± 0.037 | 0.786 ± 0.058 | 1.11 ± 0.043
SAGSPIEELAKKIAEPKYKEEKKPNLTIKVEIEVTVTTSVPVKLPNGEPAYKTTEVKIKVKLTINIPEGSAG [r5_297_JUSTAS] | 3 ± 0.16 | 3.63 ± 0.48 | 3.39 ± 0.46
SAGGSAGGSGSLRLRVRSPEQALEWLRRVLPPDFDLTPEELEELVRFLLATSEVTPDGYLLLRSAGGSAGGS [r12_983_TrMRF] | 1.826 ± 0.018 | 2.52 ± 0.051 | 2.32 ± 0.042
WMWVIKVRNPKNGKKRTIMIPDDPERAKNQIKNLKKQDPNMTVEIIGIKEPEVRKAAKEAGLDDIEVEPMPS [r1_114_TrROS] | 0.758 ± 0.091 | 0.666 ± 0.34 | 0.726 ± 0.31
SAGGGMMTVTVTRVEREKPAGDEYLEKVLVTLPDSTLEATLTLKEKEEADKPPSVTVVPLEAVLALLASAGG [r13_540_JUSTAS] | 0.927 ± 0.019 | -0.274 ± 0.31 | 0.57 ± 0.11
SAGGSAGGSAGKEKEIIIKVKVTKDKNGKYKIDIEELKKLFPNVKITEIKDNYIKIKVKKSAGGSAGGSAGG [r11_771_TrROS_Hall] | 1.63 ± 0.1 | 2.11 ± 0.13 | 1.75 ± 0.31
SAGGSMTLTFTDPSTGTTTTVTKLPNGKYVVTTTTTTSTNPEVSPTGETVGPATTTTTTVLPPAELSAGGSA [r2_195_JUSTAS] | 2 ± 0.12 | 1.79 ± 0.024 | 1.86 ± 0.065
SAGMSVTLEFTDPDKSAEELKEEIMKKVGIPENYPVKVTETPSPADGYTLTITVDDPKVAEAIKKALSSAGG [r19_215_JUSTAS] | 1.26 ± 0.037 | 1.742 ± 0.016 | 1.57 ± 0.066
SAGGMTTFELYDPVNNKKYTLTYDPATNTLTLYNPENGEILETKPVPNLQSVEAPIVPGGIEVGVVINSAGG [r13_720_JUSTAS] | 2.11 ± 0.07 | 2.75 ± 0.062 | 2.5 ± 0.085

Sequence | folding stability dG unfold [1] [kcal/mol] | folding stability dG unfold [2] [kcal/mol] | folding stability dG unfold [3] [kcal/mol]
SAGGSAGGSMSVTVVGRVPGLGLVEVVIHRPDEPVVVTVPRSEVEALLAAFPYPDAVVTTRDASAGGSAGGS [r12_23_JUSTAS] | -0.043 ± 0.047 | 0.205 ± 0.028 | 0.151 ± 0.056
SAGMYMVTITWEYPNGWTFEFMVFVRGPNPEEAREQVDEAAREIFEQRDHPIKDVKVDVQPMPPGQEISAGG [r19_335_TrROS] | 1.96 ± 0.064 | 3.18 ± 0.054 | 2.84 ± 0.23
SAGGSAGGSAGKEIKVETEENPNGQHPVKIEIYDGGNPRPIEFPVDSPEDAEDWAKELLKSAGGSAGGSAGG [r11_560_TrROS] | -0.595 ± 0.074 | 0.148 ± 0.031 | -0.0496 ± 0.079
SMKKGEKIKIEKKKDGTLKITLPDGKEITVPLKDIKIEIKDGKIKITVFKDGKKIAEFELKIKKKKKKKKSA [r9_901_TrROS_Hall] | 1.71 ± 0.07 | 2.64 ± 0.11 | 2.31 ± 0.42
SAGDDWIPIEEIARRIARKHGYPVKSVEVPIYKTPDYYYVTVHIKYENPDDGKKQEFEDQFWIPKDEIKSAG [r5_421_TrROS] | 0.968 ± 0.065 | 0.97 ± 0.054 | 0.886 ± 0.17
SAGGGAEELAKALAEELEKEGLIKEVEVEVRVRPDGSIEVRIKVKVEPPPPPPPVTVVRDENGEERLLSAGG [r13_957_TrROS_Hall] | 0.972 ± 0.097 | 0.601 ± 0.12 | 1.11 ± 0.31
SAGGSAGGSAGGMKTIVLPNVTPEEAEALAAELEKKYPGRTVNVTYVPENPTTVVITVGSAGGSAGGSAGGS [r10_852_JUSTAS] | 2.21 ± 0.085 | 2.54 ± 0.12 | 2.41 ± 0.087
SAVFIEVERDPGDGAYEVTIHYLIPLRPYKDPDGKQKPPVYFMIEITIRFSPNGQIRDLDIDIFPFDAPSAG [r14_246_TrROS] | 3.53 ± 0.13 | 4.41 ± 0.15 | 4.28 ± 0.37
SAGGSAGGMPLLPLNKEVRVLSVSYIPPNDVVVVRVKGLDNVESTILIPVSLAKNIPISPDSTLSAGGSAGG [r6_910_TrMRF] | 0.944 ± 0.024 | 0.44 ± 0.059 | 0.733 ± 0.056
SAGGSAGGSAGDPGQELMFMWIWPWPNPDGQPWVRIFMWSVRVDDGKIKEIEPTTMWIPLSAGGSAGGSAGG [r11_35_TrROS] | 3.08 ± 0.17 | 3.774 ± 0.032 | 3.55 ± 0.26
SAGGQKTETFEFAFRKPDGSLYLVKITLIEKLPNEPNVYIAKVEVYKLNLVTGKPEKVGEFEVLLNLSAGGS [r8_65_TrMRF] | 3.4 ± 0.13 | 5.04 ± 0.15 | 4.96 ± 0.14
SAGGMVTKTYEFEGENGGKILIEVKEDPDKPVVTVKFYRPDGKPLFEAEIEADSIEDAIQQAKDLLASAGGS [r16_158_TrMRF] | 3.45 ± 0.12 | 3.76 ± 0.11 | 3.66 ± 0.13
SAGGSAGGEEEETVTLTLEVEVEAEVKVEKNADGEETEVEVKVKRVRVRLTLTLTKEELEKLLKSAGGSAGG [r6_119_TrROS_Hall] | 2.59 ± 0.14 | 4.17 ± 0.15 | 3.54 ± 0.31
SAGAMKITMPEDISVSPSGGATVTITVEFPDKDAVYTVPVTFPDVKSVEEVLARAEEVGKEFAEELKKKSAG [r5_940_JUSTAS] | 0.484 ± 0.046 | 0.872 ± 0.063 | 0.73 ± 0.099
SMVLELPAKDLKLEVNEDGTLKLTIKLENGKKVTFTFPAGDKITKIEVLSPDKVKIIFEKKPLKDLKTFLSA [r9_501_TrMRF] | 1.1 ± 0.047 | 1.76 ± 0.074 | 1.61 ± 0.19
SAGGSAGGSAGMKPGEKVLLVKIKIKNENGEEETILVEMSLEELKKLLEEENIEVEILELSAGGSAGGSAGG [r17_313_TrROS_Hall] | 3.88 ± 0.17 | 2.27 ± 0.039 | 3.03 ± 0.1
SAGGSAPVVRVEIVVLGTGEVRTLTLEEAKRFLEAHPDKIDRVLVRVEVFEPDASTSDDVDPDGVPSAGGSA [r15_99_TrMRF] | 2.03 ± 0.034 | 1.97 ± 0.021 | 2.04 ± 0.07
SAGGSPFKKETFEFENVKVEVYRLPGPYALALLEVEVSGEPVYYVAVFKLGPDNKLEVVSFGPVDLSAGGSA [r2_171_TrMRF] | 2.63 ± 0.054 | 2.85 ± 0.031 | 2.78 ± 0.053
SAGGSAGGSAGGSMIVITTEGEEVRNSLPSSYNILETKEDPSVPSYTYDIKKPGTGKEESAGGSAGGSAGGS [r4_435_JUSTAS] | -1.55 ± 0.38 | -0.979 ± 0.71 | < -1
SAGGSARIKIDPPGKIKVYYNGQPFTIKPGVELDIQRTDDMIVLRIRMRDPDGKPVGEFPFMFRIKSAGGSA [r15_424_TrROS] | 2.13 ± 0.073 | 2.59 ± 0.23 | 2.41 ± 0.24
SAGGSANDKDGQKKKQIKPIKIELPIPPGMEIEEINPGNGMIMIRWPENGWTWMFSLDDGKIFVMDSAGGSA [r15_452_TrROS] | 1.54 ± 0.058 | 2.13 ± 0.19 | 1.86 ± 0.22
